Data from patent US20190085075A1 (published 2019).

Key:
[1] = biological target: T1, soluble cynomolgus monkey LAG-3 fusion protein (extracellular domain of cynomolgus monkey LAG-3 fused to … (cynomolgus monkey; murine); test: Biacore; cynomolgus LAG-3 ECD-murine IgG2a captured on Fab2 goat-anti-mouse Fc, antibody injected
T1 construct: extracellular domain; also called cynomolgus LAG-3-murine IgG2a fusion protein

[2] = biological target: T2, His-tagged soluble human LAG-3 (shLAG-3-His) (human, UniProt P18627 23-450); test: Biacore; antibody captured (capture surface not marked for this row), shLAG-3-His injected
T2 construct: also called soluble human LAG-3-His fusion protein; extracellular domain of human LAG-3 fused to a His tag; not shown: His tag
T2 sequence: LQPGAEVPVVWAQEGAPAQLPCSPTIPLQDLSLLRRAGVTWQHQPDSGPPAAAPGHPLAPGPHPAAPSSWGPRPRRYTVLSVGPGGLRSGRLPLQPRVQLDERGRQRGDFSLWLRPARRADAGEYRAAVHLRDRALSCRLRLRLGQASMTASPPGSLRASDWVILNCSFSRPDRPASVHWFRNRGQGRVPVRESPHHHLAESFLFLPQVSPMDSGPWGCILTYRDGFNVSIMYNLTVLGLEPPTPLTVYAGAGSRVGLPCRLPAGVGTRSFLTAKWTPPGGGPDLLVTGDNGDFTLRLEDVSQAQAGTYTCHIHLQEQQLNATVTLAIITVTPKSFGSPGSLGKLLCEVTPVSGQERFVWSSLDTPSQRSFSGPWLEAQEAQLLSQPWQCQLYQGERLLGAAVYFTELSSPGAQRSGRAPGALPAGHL

[3] = biological target: T3, soluble human LAG-3 fusion protein (extracellular domain of human LAG-3 fused to murine IgG2a) (human; murine, UniProt P18627 23-450); test: Biacore; human LAG-3 ECD-murine IgG2a captured on Fab2 goat-anti-mouse Fc, antibody injected
T3 construct: also called human LAG-3-murine IgG2a fusion protein; not shown: murine IgG2a
T3 sequence: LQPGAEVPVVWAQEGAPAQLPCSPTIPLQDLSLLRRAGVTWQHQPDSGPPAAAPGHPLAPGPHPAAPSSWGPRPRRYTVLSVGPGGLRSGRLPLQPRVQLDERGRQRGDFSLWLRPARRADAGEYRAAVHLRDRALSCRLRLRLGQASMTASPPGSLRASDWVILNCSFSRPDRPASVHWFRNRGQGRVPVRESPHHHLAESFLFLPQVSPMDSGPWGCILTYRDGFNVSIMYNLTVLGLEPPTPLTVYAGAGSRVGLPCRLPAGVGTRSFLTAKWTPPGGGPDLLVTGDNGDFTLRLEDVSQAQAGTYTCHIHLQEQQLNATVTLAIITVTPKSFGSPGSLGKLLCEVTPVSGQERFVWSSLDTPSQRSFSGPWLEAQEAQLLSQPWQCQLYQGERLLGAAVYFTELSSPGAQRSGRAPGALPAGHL

B1: LAG-3 mAb A (25F7, BMS-986016, Medarex/BMS) (antibody, V domains shown)
VH: QVQLQQWGAGLLKPSETLSLTCAVYGGSFSDYYWNWIRQPPGKGLEWIGEINHNGNTNSNPSLKSRVTLSLDTSKNQFSLKLRSVTAADTAVYYCAFGYSDYEYNWFDPWGQGTLVTVSS
VL: EIVLTQSPATLSLSPGERATLSCRASQSISSYLAWYQQKPGQAPRLLIYDASNRATGIPARFSGSGSGTDFTLTISSLEPEDFAVYYCQQRSNWPLTFGQGTNLEIK
notes: also called LAG-2 mAb A
[1]
  Kd: 458 nM
[2]
  Kd: 0.6 nM
[3]
  Kd: 0.16 nM
